This is an account of results in US20220073643A1 (NANJING GENSCRIPT BIOTECH, published 2022).

Where a chain is given by its changes, count along the chain named.

The chains are these.
B1: 292D9C7 (antibody, V domains shown)
VH: QVQLKESGPGLVAPSQSLSITCTVSGFSLTDYGVSWIRQPPGKGLEWLGVIWGGGNAYYNSALKSRLSISKDNSKSQVFLKMNSLRTDDTAMYYCAKNGLLRYLDYWGQGSTLTVSS
VL: DTVMTQSPSSLTVTAGEKVTMSCKSSQSLLNSGNQKNYLTWYQQKPGQPPKLLIYWASTRESGVPDRFTGSGSGRDFTLTISSVQVEDLAIYYCQNDYYYPLTFGAGTKVELK
notes: mouse hybridoma mAb
B2: 252E7C9 (antibody, V domains shown)
VH: QTYLQQSGAELVRSGASVKMSCRTSGYSFTSHNMHWVKQTPGQGLEWIGYIYPGNGGSYYNQKFKGKAILTADTSSSTAYMQISSLTSEDSAVYFCTRDYYGNSFVYWGQGTLVTVSA
VL: DVVMTQSPSSLTEKTGEKVSMSCKSSQSLLNSGNQKNYLTWYQQKPGQPPKLLIYWASTRESGVPDRFTGSGSGTDFTLTISSLQTEDLAIYYCQNNFRYPFTFGAGTKLELK
notes: mouse hybridoma mAb
B3: 260F8A6 (antibody, V domains shown)
VH: B2 VH with T2A, T24A, S28T, G57N, S58T, I69T, S77N, S84N, T97V
VL: B2 VL with T69I, I91V, F98Y, R99M
notes: mouse hybridoma mAb
B4: 279E8B8 (antibody, V domains shown)
VH: QAYLQQSGAELVRSGASVKISCKASGYTFASHNMHWVKQTPGQGLEWIGYIYPGNGGTKYNQKFTGKATLSADTSSSTAYLQISSLTSEDSAVYFCARDYFGNSFVYWGQGTLVTVSA
VL: B2 VL with V2I, T15A, S22R, L84V, T86A, E87D, I91V, N97D, F98Y, R99M
notes: mouse hybridoma mAb
B5: 252C10F6 (antibody, V domains shown)
VH: QVHLKQSGRGLVQPSQSLSITCTVSGFSLPNYGVHWVRQPPGKGLEWLGVIWSGGNTDYNTVFKARLSITKDNSKSQVFFKMNSLQADDTAIYYCARNLYGNYDYAMDYWGQGTSVTVSS
VL: DIVMTQSPATLSVTPGDRVSLSCRASQSISDYLHWYQQKSHESPRLLIKYASQSISGIPSRFSGSGSGSEFTLSINSVEPEDVGVYYCQNGHSFPFTFGSGTKLEIK
notes: mouse hybridoma mAb
B6: 253E4F7 (antibody, V domains shown)
VH: EIQLQQSGPELMKPGASVKMSCKASGYSFTSYYIHWVKQSHGKSLEWIGYIDPFNGGTRYNQKFEGKATLTVDKSSTTAYMHLSSLTSEDSTVYYCASLRFLAYWGQGTLVTVSA
VL: DIVMTQSPSSLTVTAGEKVTMTCKSSQSLLNSGNQKNYLTWYQQKPGQPPKVLISRASTRQSGVPDRFTGSGSGTDFTLTISSVQAEDLAVYYCQNDYSYPLTFGAGTKLELK
notes: mouse hybridoma mAb
B7: 275B2G2 (antibody, V domains shown)
VH: EVMLVESGGGLVKPGGSLKLSCAASGFTFRDYTMSWVRQTPEKRLEWVATSIIGGTYTYYPDSVKGRFTISRDNVKNTLYLQMSSLRSEDTAMYYCSRLGRGNAMDYWGQGTSVTVSS
VL: B6 VL with T22S, V52L, S55Y, R56W, Q61E, L102F, A106S, L112I
notes: mouse hybridoma mAb
B8: 273F3D4 (antibody, V domains shown)
VH: QVQLKESGPGLVAPSQSLSITCTVSGFALTTYGVSWVRQPPGKGLEWLGVIWGDGSTHYHSALISRLSIRKDNSKSQVFLKLNSLQTDDTATYYCAKPGRGNAMDYWGQGTSVTVSS
VL: B6 VL with T5S, T22S, P49S, V52L, S55Y, R56W, Q61E, V84M, S99I, K109M
notes: mouse hybridoma mAb
B9: 265E6G2 (antibody, V domains shown)
VH: B4 VH with I20M, A30T, H32Y, K59N, T65K, S71T, L81M, F101Y, V106A
VL: B6 VL with I2L, T22S, V52L, S55Y, R56W, Q61E, S83N, V84I, T103P, K113R
notes: mouse hybridoma mAb
B10: 392A11C8 (antibody, V domains shown)
VH: DVQLVESGGGLVQPGGSRKLSCAASGFTFSGFGMHWIRQTPEKGLEWVAYISSGSRPIYYADTVKGRFTISRDNPKNTLFLQMTSLRSEDTAMYFCARFYYGNSFDHWGQGTLVTVSA
VL: B6 VL with S10F, T22S, K24R, V52L, S55Y, R56W, Q61E, V91L, D97A, Y100F
notes: mouse hybridoma mAb
B11: 286C7F11 (antibody, V domains shown)
VH: B1 VH with G53N, G54R, A57T, K81R, R86Q, N98H, G99D, L100F, Y103F, S111T
VL: B1 VL with T2V, L52I, R75T, T78S, S82T, V86A, I91V, Q95L, V110L
notes: mouse hybridoma mAb
B12: 271B1B6 (antibody, V domains shown)
VH: QAYLQQSGAELVRSGASVKMSCKASGYTFTNYNIHWVKQTPGQGLEWIGYIYPGNGGNYYNQKFKGKATLTADTSSITAYMQISSLTSEDSAVYFCARDYYGNSFAYWGQGTLVTVSA
VL: B1 VL with T2I, S22N, R75T, V86A, V110L
notes: mouse hybridoma mAb
B13: 406F11G8 (antibody, V domains shown)
VH: B10 VH with G31S, I37V, T40A, R56S, P75S, F99I, D106A, H107Y
VL: B1 VL with T2I, T20A, S28T, R75T, V86A, I91V, D97A, A106S, V110L
notes: mouse hybridoma mAb
B14: 259B4D4 (antibody, V domains shown)
VH: EIQLQQSGPELMKPGASVRISCKASGYSFTSYYMHWMKQSHVKSLEWIGYIDPFNGNTRYNQKFKDKATLTVDKSSTTAYMHLSSLTSEDSAVYFCASLRFFAYWGQGTLVTVSA
VL: B6 VL with T22S, K24N, V52L, S55Y, R56W, T59S, Q61E, S83T, Y100F, K109R
notes: mouse hybridoma mAb
B15: 409D1A7 (antibody, V domains shown)
VH: B10 VH with Q82H
VL: DIVMTQSPSFLTVTAGEKVTMNCKSSQSLLNSGNQRNYLTWYQQKPGQPPKLLIYWASTRESGVPDRFTGSGSGTDFTLTISSVQAEDLALYYCQNAYSFPLTFGAGTKLELN
notes: mouse hybridoma mAb
B16: 410D9G2 (antibody, V domains shown)
VH: B10 VH with K65Q, A118S
VL: B15 VL with N22S, R36K, N113K
notes: mouse hybridoma mAb
B17: 394C2G5 (antibody, V domains shown)
VH: B10 VH with I51V
VL: B15 VL with N22S, R36K, S82N, S83N, N113T
notes: mouse hybridoma mAb
B18: 407D8G1 (antibody, V domains shown)
VH: B10 VH with K65Q, A118S
VL: B15 VL with N22S, R36K, N113K
notes: mouse hybridoma mAb
B19: 406E1H7 (antibody, V domains shown)
VH: B10 VH with K65Q, A118S
VL: B15 VL with N22S, R36K, N113K
notes: mouse hybridoma mAb
B20: 407E11H8 (antibody, V domains shown)
VH: B10 VH with G31D, A97V, Y101F
VL: B15 VL with N22T, K24R, S28N, Q35L, R36K, Y55S, A86P, N113K
notes: mouse hybridoma mAb
B21: 411B4G4 (antibody, V domains shown)
VH: B10 VH with M34L
VL: B15 VL with N22S, K24R, N113K
notes: mouse hybridoma mAb
B22: 411G3E10 (antibody, V domains shown)
VH: B10 VH
VL: B15 VL with K24R, R36K, N113K
notes: mouse hybridoma mAb
B23: 411G12G1 (antibody, V domains shown)
VH: B10 VH with T40A
VL: B15 VL with N22S, R36K, L91V, A97D, N113K
notes: mouse hybridoma mAb
B24: 391H11H3 (antibody, V domains shown)
VH: B10 VH with K65Q, A118S
VL: B15 VL with N22S, R36K, N113K
notes: mouse hybridoma mAb
B25: 263E9F3 (antibody, V domains shown)
VH: B6 VH with L4V, M20I, K23R, A24S, H41R, N55S, T92A, L102F
VL: B6 VL with K36E, K51E, V52L, A86T
notes: mouse hybridoma mAb
B26: 407A8G10 (antibody, V domains shown)
VH: B10 VH
VL: B15 VL with N22S, K24R, T78A, N113K
notes: mouse hybridoma mAb
B27: 409G10G6 (antibody, V domains shown)
VH: B10 VH with G54D, A97G
VL: B15 VL with M21L, N22S, K24R, L89R, A106T, N113R
notes: mouse hybridoma mAb
B28: 411A6E3 (antibody, V domains shown)
VH: B10 VH with G31D, A97V, Y101F
VL: B15 VL with N22T, K24R, S28N, Q35L, R36K, Y55S, A86P, N113K
notes: mouse hybridoma mAb
B29: 395B3C11 (antibody, V domains shown)
VH: B10 VH with K65Q, A118S
VL: B15 VL with N22S, R36K, N113K
notes: mouse hybridoma mAb
B30: 246B5F2 (IgM) (antibody, V domains shown)
VH: EVMLVESGGGLMKPGGSLKLSCAASEFTFSNYAMSWVRQTPEKRLEWVATISSGRSSTYYPDSVKGRFTISRDNAKNTLYLQMSSLRSEDTAMYYCAGLGRGNAMEYWGQGTSVTVSS
VL: DIVMTQSPSSLTVTAGEKVTLSCKSSQSLLNSGNQKNYLTWYQQKPGQPPKLLIYWASTRESGVPDRFTGSGSGTDFILTINSVQAEDLAVYYCQNAYSYPFTFGSGTKLEIK
notes: mouse hybridoma mAb, IgM
B31: 391F1G2 (antibody, V domains shown)
VH: B10 VH with G31S, I37V, T40A, R56S, F99I, D106A, H107Y
VL: B30 VL with T20A, L21M, S28T, I54L, I78T, N82S, S99Y, F102L, I112L
notes: mouse hybridoma mAb
B32: 242F5H2 (antibody, V domains shown)
VH: B7 VH with R30S, D31S, M34V, I53V, G55S, Y60F, N74F, V75A, Y80F, T115S
VL: B30 VL with S22N, K24R, I78T, N82S, E87D, A97G
notes: mouse hybridoma mAb
B33: 254A8D5 (antibody, V domains shown)
VH: B7 VH with R30S, D31S, M34V, I53V, G55S, Y60F, N74F, V75A, Y80F, T115S
VL: B30 VL with S22N, K24R, I78T, N82S, E87D, A97G
notes: mouse hybridoma mAb

The target of the assay is T1, human Claudin18.2 (human).
T1 construct: also called CLDN18.2
The assay can be described thus: cell ELISA, Claudin18.2-expressing HEK293T cells. Here is the method:
To determine protein binding EC₅₀ by Cell ELISA, 96-well U-bottom microplates were pre-blocked with blocking buffer (5% MPBS, 1×PBS with 5% skim milk) overnight at 4° C. On the next day, the Claudin18.2-expressing HEK293T stable cell line was suspended at 1.5×10⁶ cells/ml in blocking buffer, added to the plate in 100 μl/well and incubated at room temperature for 1 hour.
Raw data were plotted with GraphPad Prism v6.02 software with four parameters, best-fit value program to analyze the EC₅₀.
A general note: ELISA stands for enzyme-linked immunosorbent assay.
A word on the EC50: it is the concentration needed to bring the measured effect to its halfway point. Read a low EC50 as a more potent agent. In the case of B1, it took 0.875 nM to reach a half-maximal effect (EC50).
B2: the EC50 was approximately 0.37 nM.
B3 displayed an EC50 of 1.8 nM.
Molecule B4 gave an EC50 of approximately 9.62 nM.
B5: the EC50 is approximately 12.5 nM.
Take B6: the EC50 amounted to 0.611 nM.
In turn, B7 registered an EC50 of approximately 2.06 nM.
With B8 the figure was 1.13 nM; with B9, approximately 14 nM.
Under B10 stands 1.21 nM; under B11, approximately 0.0831 nM.
With B12 the figure was approximately 0.429 nM.
For the molecule B13, the EC50 is 1.83 nM.
Under B14 stands approximately 0.378 nM.
Under B15 stands 2.05 nM.
With B16 the figure was 4.33 nM; with B17, 2.81 nM.
Consider B18, for which the EC50 turned out to be 2.38 nM.
B19 registered an EC50 of 4.33 nM.
Consider B20, for which the response was half-maximal at 1.24 nM (EC50).
Turning to B21, the EC50 was determined as 2.85 nM.
The molecule B22 registered an EC50 of 2.45 nM.
B23 yielded a concentration for a half-maximal effect (EC50) of 3.47 nM.
With B24, the EC50 is 2.97 nM.
With B25 the figure was 1.08 nM; with B26, 2.14 nM.
Under B27 stands 2.19 nM; under B28, approximately 2.6 nM.
Under B29 stands 3.58 nM.
B30: the EC50 amounted to 6.59 nM.
Under B31 stands approximately 2.66 nM; under B32, approximately 0.403 nM.
Under B33 stands 0.982 nM.
